Among the data in the supplement of paper PMC10567573 are protein stability index values, retold here.

The labels stand for the following.
B1: TMEM106C (parent)
chain: FTGRDSITCLTCQGTGYIPTEQVN
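Also: lentivirally expressed fusions sorted by FACS into six bins by GFP to DsRed ratio, PSI derived from sequencing read proportions per bin multiplied by bin number.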

Variants of B1 are the subject of this data set. As to the kind of experiment: protein stability index of a GFP-peptide fusion (GPS, HEK-293T) (PSI 1-6); higher = more stable. Conditions: c terminus: a fixed tail appended.
Regarding FTGRDSITCLTCQGTGYIPTEQVI [N24I], the protein stability index worked out at 1.44. The result for FTGRDSITCLTCQGTGYIPTEQVS [N24S] reads 2.27; that for FTGRDSITCLTCQGTGYIPTEQVR [N24R], 2.37. The result for FTGRDSITCLTCQGTGYIPTLQVN [E21L] reads 2.03; that for FTGRDSITCLTCQGTGYIPTTQVN [E21T], 2.08. Regarding FTGRDSITCLTCQGTGYIPTHQVN [E21H], the protein stability index was 1.79. The value for FTGRDSITCLTCQGTGYIPTRQVN [E21R] was 2.03. The value for FTGRDSITLLTCQGTGYIPTEQVN [C9L] was 2.04. The value for FTGRDSITKLTCQGTGYIPTEQVN [C9K] was 2.17; that for FTGRDSITTLTCQGTGYIPTEQVN [C9T] was 1.82; that for FTGRDSITCLTCQGTGYIPTEQHN [V23H] was 2.11. On to FTGRDSITCLTCQGTGYIPTEQQN [V23Q], for which the protein stability index was 1.72.

In the case of FTGRDSITCLTCQGTGYIPTEQYN [V23Y], the protein stability index was found to be 1.79. The result for FTGRDSITCLTCQGTGYIPTEQPN [V23P] reads 1.89; that for FTGRDSITCLFCQGTGYIPTEQVN [T11F], 2.85.

On to FTGRDSITCLACQGTGYIPTEQVN [T11A], for which the protein stability index came to 2.32. The result for FTGRDSITCLQCQGTGYIPTEQVN [T11Q] reads 1.85. The value for FTGRDSITCLPCQGTGYIPTEQVN [T11P] was 1.55; that for FTGRDSIRCLTCQGTGYIPTEQVN [T8R] was 1.41; that for FTGRDSIICLTCQGTGYIPTEQVN [T8I] was 1.82. The result for FTGRDSIMCLTCQGTGYIPTEQVN [T8M] reads 2.4; that for FTGRDSIHCLTCQGTGYIPTEQVN [T8H], 2.28. Turning to FTGRDSITCLTCQKTGYIPTEQVN [G14K], the protein stability index was found to be 1.66. On to FTGRDSITCLTCQETGYIPTEQVN [G14E], for which the protein stability index was 2.28.

For FTGRDSITCLTSQGTGYIPTEQVN [C12S], the protein stability index stood at 2. The result for FTGRDSITCLTDQGTGYIPTEQVN [C12D] reads 2.41; that for FTGRDSITCLTWQGTGYIPTEQVN [C12W], 2.51. The value for FTGRDSITCLTHQGTGYIPTEQVN [C12H] was 1.98; that for FTGRDSITCLTCQGTGYIPTEEVN [Q22E] was 1.73; that for FTGRDSITCLTCQGTGYIPTETVN [Q22T] was 2.2. The value for FTGRDSITCLTCQGTGYIPTERVN [Q22R] was 2.13; that for FTGRDSITCLTCQGTGYIPTEGVN [Q22G] was 2.84; that for FTGRDSITCLTCQGTGYIPTEVVN [Q22V] was 2.16. As to FTGRDSITCLTCQGTGYIPTECVN [Q22C], the protein stability index came to 2.

On to FTGRDSITCLTCQGTGYIPTEWVN [Q22W], for which the protein stability index amounted to 1.88. Turning to FTGRDSITCLTCQGTGYQPTEQVN [I18Q], the protein stability index amounted to 2.

Turning to FTGRDSITCLTCQGTGYEPTEQVN [I18E], the protein stability index stood at 1.53. The value for FTGRDSITCLTCQGTGYKPTEQVN [I18K] was 1.82; that for FTGRDSITCLTCQGTGYMPTEQVN [I18M] was 2.78; that for FTGRDSCTCLTCQGTGYIPTEQVN [I7C] was 1.73. The result for FTGRDSKTCLTCQGTGYIPTEQVN [I7K] reads 2.32.

For the variant FTGRDSWTCLTCQGTGYIPTEQVN [I7W], the protein stability index came to 3.32. The result for FTGRDSHTCLTCQGTGYIPTEQVN [I7H] reads 2.09; that for FTGRDSVTCLTCQGTGYIPTEQVN [I7V], 1.77.

In the case of FTGRDSITCLTCQGTGYICTEQVN [P19C], the protein stability index was 2.29. For FTGRDSITCLTCQGTGYISTEQVN [P19S], the protein stability index was determined as 2.23. The result for FTGRDSITCLTCQGTGYIWTEQVN [P19W] reads 2.29.

Turning to FTGSDSITCLTCQGTGYIPTEQVN [R4S], the protein stability index stood at 3.04. The value for FTGCDSITCLTCQGTGYIPTEQVN [R4C] was 2.32; that for FTGDDSITCLTCQGTGYIPTEQVN [R4D] was 3.14. The result for FTGKDSITCLTCQGTGYIPTEQVN [R4K] reads 2.12; that for FTGPDSITCLTCQGTGYIPTEQVN [R4P], 2.41. The result for FTGQDSITCLTCQGTGYIPTEQVN [R4Q] reads 2.46. On to FTGRDSITCLTCQGTTYIPTEQVN [G16T], for which the protein stability index is 2.04.

For the variant FTGRDSITCLTCQGTQYIPTEQVN [G16Q], the protein stability index came to 1.6. The value for FTGRDSITCLTCQGTHYIPTEQVN [G16H] was 2.01; that for FTGRDHITCLTCQGTGYIPTEQVN [S6H] was 2.43; that for FTGRDQITCLTCQGTGYIPTEQVN [S6Q] was 2.05. The value for FTGRDAITCLTCQGTGYIPTEQVN [S6A] was 2.27.

On to FTGRDYITCLTCQGTGYIPTEQVN [S6Y], for which the protein stability index stood at 2.04. The result for FTGRDCITCLTCQGTGYIPTEQVN [S6C] reads 1.99; that for FTLRDSITCLTCQGTGYIPTEQVN [G3L], 3.45; that for FTDRDSITCLTCQGTGYIPTEQVN [G3D], 1.85.

Regarding FTIRDSITCLTCQGTGYIPTEQVN [G3I], the protein stability index came to 2.33. The result for FTGRDSITCLTCQGTGMIPTEQVN [Y17M] reads 1.77.

On to FTGRDSITCLTCQGTGEIPTEQVN [Y17E], for which the protein stability index was found to be 2.2.

On to FTGRDSITCLTCQGVGYIPTEQVN [T15V], for which the protein stability index came out at 2.04.

Take FTGRDSITCLTCQGFGYIPTEQVN [T15F]: the protein stability index came out at 2.26.

For FTGRDSITCLTCQGLGYIPTEQVN [T15L], the protein stability index stood at 1.89. The result for FTGRDSITCLTCRGTGYIPTEQVN [Q13R] reads 2.18; that for FTGRDSITCLTCCGTGYIPTEQVN [Q13C], 1.53. The value for FTGRDSITCLTCDGTGYIPTEQVN [Q13D] was 1.83. The value for FTGRDSITCLTCHGTGYIPTEQVN [Q13H] was 2.09; that for FTGRDSITCLTCNGTGYIPTEQVN [Q13N] was 2.39. As to FTGRDSITCLTCTGTGYIPTEQVN [Q13T], the protein stability index came to 2.71.

With FTGRDSITCLTCMGTGYIPTEQVN [Q13M], the protein stability index stood at 1.75. The result for FTGRDSITCLTCAGTGYIPTEQVN [Q13A] reads 2.23; that for FGGRDSITCLTCQGTGYIPTEQVN [T2G], 2.84; that for FVGRDSITCLTCQGTGYIPTEQVN [T2V], 2.87. In the case of FRGRDSITCLTCQGTGYIPTEQVN [T2R], the protein stability index turned out to be 4.04.

Regarding FQGRDSITCLTCQGTGYIPTEQVN [T2Q], the protein stability index is 2.91. In the case of FAGRDSITCLTCQGTGYIPTEQVN [T2A], the protein stability index was found to be 2.81. The value for FMGRDSITCLTCQGTGYIPTEQVN [T2M] was 2.95. The value for FTGRDSITCLTCQGTGYIPVEQVN [T20V] was 2.23; that for FTGRDSITCLTCQGTGYIPEEQVN [T20E] was 1.66. For the variant FTGRDSITCLTCQGTGYIPCEQVN [T20C], the protein stability index worked out at 1.83.

Regarding FTGRDSITCLTCQGTGYIPYEQVN [T20Y], the protein stability index was 2.17.

For FTGRDSITCLTCQGTGYIPGEQVN [T20G], the protein stability index was 1.45. Turning to FTGRDSITCMTCQGTGYIPTEQVN [L10M], the protein stability index worked out at 1.91. The result for FTGRDSITCYTCQGTGYIPTEQVN [L10Y] reads 3.42. The result for FTGRQSITCLTCQGTGYIPTEQVN [D5Q] reads 2.17; that for FTGRLSITCLTCQGTGYIPTEQVN [D5L], 2.66.

For the variant FTGRASITCLTCQGTGYIPTEQVN [D5A], the protein stability index amounted to 1.94. The result for VTGRDSITCLTCQGTGYIPTEQVN [F1V] reads 4.43.
